According to paper PMC5007439:

Target: T1, bacteriophage MS2 coat protein (bacteriophage MS2), P03612
T1 chain: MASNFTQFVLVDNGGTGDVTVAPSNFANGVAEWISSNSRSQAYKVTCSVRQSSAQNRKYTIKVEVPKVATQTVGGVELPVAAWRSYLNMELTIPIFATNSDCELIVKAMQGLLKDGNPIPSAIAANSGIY
Assay: cryo-EM structure; single particle cryo-EM of purified MS2 virions (coat protein, A-protein and RNA genome); icosahedral reconstruction at 4.1 Å and asymmetric reconstruction at 8.7 Å
Conditions: remark: other sources report otherwise

B1: bacteriophage MS2 coat protein, P03612 1-130 (natural protein)
chain: MASNFTQFVLVDNGGTGDVTVAPSNFANGVAEWISSNSRSQAYKVTCSVRQSSAQNRKYTIKVEVPKVATQTVGGVELPVAAWRSYLNMELTIPIFATNSDCELIVKAMQGLLKDGNPIPSAIAANSGIY
Binder B1 has a stoichiometry N of 178 copies.
